According to US20090208538A1:

Assays:
[1] = target: HLA-A*0201 (human); experiment: iTopia net score
[2] = target: HLA-A*0201 (human); experiment: iTopia binding
[3] = target: HLA-A*0201 (human); experiment: iTopia affinity

iScore [1]: 0.352
binding vs positive control [2]: > 30%
ED50 [3]: 1000 nM
Substance: cdr2 246-254 RALELEAV (peptide)
